Assay results as given in publication PMC7229662 (Proceedings of the National Academy of Sciences of the …, 2020).

Target: the molecule itself
Assay: cryo-EM structure

B1: C331S variant of polycystin-2 (residues 53 to 792) (natural protein, human, UniProt Q13563 53-792, looked up)
chain: EIEMQRIRQAAARDPPAGAAASPSPPLSSCSRQAWSRDNPGFEAEEEEEEVEGEEGGMVVEMDVEWRPGSRRSAASSAVSSVGARSRGLGGYHGAGHPSGRRRRREDQGPPCPSPVGGGDPLHRHLPLEGQPPRVAWAERLVRGLRGLWGTRLMEESSTNREKYLKSVLRELVTYLLFLIVLCILTYGMMSSNVYYYTRMMSQLFLDTPVSKTEKTNFKTLSSMEDFWKFTEGSLLDGLYWKMQPSNQTEADNRSFIFYENLLLGVPRIRQLRVRNGSSSIPQDLRDEIKECYDVYSVSSEDRAPFGPRNGTAWIYTSEKDLNGSSHWGIIATYSGAGYYLDLSRTREETAAQVASLKKNVWLDRGTRATFIDFSVYNANINLFCVVRLLVEFPATGGVIPSWQFQPLKLIRYVTTFDFFLAACEIIFCFFIFYYVVEEILEIRIHKLHYFRSFWNCLDVVIVVLSVVAIGINIYRTSNVEVLLQFLEDQNTFPNFEHLAYWQIQFNNIAAVTVFFVWIKLFKFINFNRTMSQLSTTMSRCAKDLFGFAIMFFIIFLAYAQLAYLVFGTQVDDFSTFQECIFTQFRIILGDINFAEIEEANRVLGPIYFTTFVFFMFFILLNMFLAIINDTYSEVKSDLAQQKAEMELSDLIRKGYHKALVKLKLKKNTVDDISESLRQGGGKLNFDELRQDLKGKGHTDAEIEAIFTKYDQDGDQELTEHEHQQMRDDLEKEREDLDLD
Q: Which “stoichiometry N” value does the source give for B1 here?
A: 4
